Measurements taken from patent publication US20020164707A1, “Calcitonin gene related peptide receptor” (Human Genome Sciences, Inc., priority 1994, published 2002).
No end group written: not given here.

Tests used:
CGRP receptor = molecular target: T1, CGRP receptor (Homo sapiens, UniProt O60894+Q16602); assay: [125I]CGRP binding to membranes from 293 cells (clone 22) stably transformed with CGRP receptor cDNA; conditions: for rank order of potency in competition against [125I]CGRP binding: two to three independent experiments in duplicate
T1 construct: expressed in transfected cells; host or cells: Human Kidney 293 cells (transient)
Protocol: FIG. 8. Saturation binding. […] Equilibrium binding was measured at 25° C. for 60 min. […] Data are from one experiment representative of three independent experiments done in duplicate. (B) Scatchard plot of [^125I] CGRP binding.
FIG. 9. Competition binding profiles. Competition curves for representative CGRP analogs against [^125I]CGRP binding to membranes prepared from 293 cells (clone 22 cells) stably transformed with the CGRP receptor cDNA. Each curve is representative of two to three independent experiments, each carried out in duplicate.

[1] = molecular target: human CGRP receptor polypeptide (recombinant, expressed in 293 cells from construct pCDNHCGRPr) (human) (UniProt Q16602); assay: cell-based or functional assay
Sequence of human CGRP receptor polypeptide (recombinant, expressed in 293 cells from construct pCDNHCGRPr) (human) (Q16602 22-461): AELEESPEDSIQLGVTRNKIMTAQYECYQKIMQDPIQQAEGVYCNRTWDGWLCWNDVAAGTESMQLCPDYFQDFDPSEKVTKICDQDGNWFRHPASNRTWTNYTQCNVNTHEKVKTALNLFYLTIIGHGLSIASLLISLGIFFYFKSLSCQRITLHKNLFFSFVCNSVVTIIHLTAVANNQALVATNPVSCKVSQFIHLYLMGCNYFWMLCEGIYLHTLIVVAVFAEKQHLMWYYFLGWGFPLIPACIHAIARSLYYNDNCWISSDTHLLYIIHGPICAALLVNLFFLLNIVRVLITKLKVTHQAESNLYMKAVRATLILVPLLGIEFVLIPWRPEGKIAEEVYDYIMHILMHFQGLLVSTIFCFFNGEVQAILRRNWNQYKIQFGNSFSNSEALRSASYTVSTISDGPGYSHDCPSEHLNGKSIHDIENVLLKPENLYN

T1 sequence (Q16602 23-461): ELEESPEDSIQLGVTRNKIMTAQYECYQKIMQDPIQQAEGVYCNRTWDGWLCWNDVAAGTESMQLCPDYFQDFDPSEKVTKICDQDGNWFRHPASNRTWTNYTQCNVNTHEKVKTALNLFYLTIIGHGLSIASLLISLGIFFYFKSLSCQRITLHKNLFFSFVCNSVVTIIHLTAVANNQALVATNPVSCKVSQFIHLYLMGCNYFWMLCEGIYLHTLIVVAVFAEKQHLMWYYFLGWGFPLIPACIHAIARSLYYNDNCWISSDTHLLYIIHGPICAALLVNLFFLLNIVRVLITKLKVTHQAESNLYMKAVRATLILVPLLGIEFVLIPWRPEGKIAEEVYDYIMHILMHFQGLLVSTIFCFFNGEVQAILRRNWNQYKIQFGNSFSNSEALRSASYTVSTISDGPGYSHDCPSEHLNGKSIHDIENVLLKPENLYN
T1 sequence (O60894 27-148): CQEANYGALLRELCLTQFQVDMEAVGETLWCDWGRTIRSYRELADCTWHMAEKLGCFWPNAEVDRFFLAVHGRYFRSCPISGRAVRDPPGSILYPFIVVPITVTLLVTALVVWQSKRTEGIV

Compound | rank order of potency in competition against [125I]CGRP binding (CGRP receptor) | other results
porcine vasoactive intestinal peptide (VIP): porcine vasoactive intestinal peptide | >>>> | 
human calcitonin (hCT): human calcitonin | >>>> | 
human CGRP (8-37) (from UniProt P06881 90-119) (peptide) |  | pA2 against CGRP-mediated cAMP accumulation in stably transformed 293 cells, 100 nM CGRP (8-37) [1]: 7.8 pA2
salmon calcitonin (8-32): salmon calcitonin fragment (8-32) (VLGKLSQELHKLQTYPRTNTGSGTP; ends and bridges not checked) | >>>> | 
human amylin: islet amyloid polypeptide (IAPP or amylin), human (KCNTATCATQRLANFLVHSSNNFGAILSSTNVGSNTY) | >>>> | 
CC(C)C[C@H](NC(=O)CNC(=O)[C@H](C)NC(=O)[C@H](CC(C)C)NC(=O)[C@H](CCCNC(=N)N)NC(=O)[C@H](Cc1cnc(I)[nH]1)NC(=O)[C@@H](NC(=O)[C@@H](NC(=O)[C@@H]1CSSC[C@H](NC(=O)[C@H](C)N)C(=O)N[C@@H](CC(=O)O)C(=O)N[C@@H]([C@@H](C)O)C(=O)N[C@@H](C)C(=O)N[C@@H]([C@@H](C)O)C(=O)N1)C(C)C)[C@@H](C)O)C(=O)N[C@@H](CC(C)C)C(=O)N[C@@H](CO)C(=O)N[C@@H](CCCNC(=N)N)C(=O)N[C@@H](CO)C(=O)NCC(=O)NCC(=O)N[C@H](C(=O)N[C@H](C(=O)N[C@@H](CCCCN)C(=O)N[C@@H](CC(N)=O)C(=O)N[C@@H](CC(N)=O)C(=O)N[C@@H](Cc1ccccc1)C(=O)N[C@H](C(=O)N1CCC[C@H]1C(=O)N[C@H](C(=O)N[C@@H](CC(N)=O)C(=O)N[C@H](C(=O)NCC(=O)N[C@@H](CO)C(=O)N[C@@H](CCCCN)C(=O)N[C@@H](C)C(=O)N[C@@H](Cc1ccccc1)C(N)=O)C(C)C)[C@@H](C)O)C(C)C)C(C)C)C(C)C [[^125I] CGRP] |  | Bmax (Scatchard plot, saturation binding) (CGRP receptor; equilibrium binding at 25° C. for 60 min): 89 fmol/mg protein
